The text below walks through data of US20190134153A1, “IMMUNOMODULATORY EFFECT OF INHALED KINASE INHIBITOR PEPTIDES IN LUNG” (MOERAE MATRIX, INC., priority 2017, published 2019).

Targets include Abl (H396P) (h) (Homo sapiens, UniProt P00519, H396P); PDGFRβ(h) (Homo sapiens, UniProt P09619); Abl (M351T)(h) (Homo sapiens, UniProt P00519, M351T); MRCKα(h) (Homo sapiens, UniProt Q5VT25); Lck(h) (Homo sapiens, UniProt P06239); cKit(D816H)(h) (Homo sapiens, UniProt P10721, D816H); Snk(h) (Homo sapiens, UniProt Q9NYY3); Fes(h) (Homo sapiens, UniProt P07332); Pim-1(h) (Homo sapiens, UniProt P11309); PKA(h) (Homo sapiens, UniProt P17612); Rsk2(h) (Homo sapiens, UniProt P51812); PAR-1Bα(h) (Homo sapiens, UniProt Q7KZI7); Aurora-B(h) (Homo sapiens, UniProt Q96GD4); EGFR(T790M)(h) (Homo sapiens, UniProt P00533, T790M); FAK(h) (Homo sapiens, UniProt Q05397); FGFR4(h) (Homo sapiens, UniProt P22455); HIPK3(h) (Homo sapiens, UniProt Q9H422); Tie2(R849W)(h) (Homo sapiens, UniProt Q02763, R849W); CK1γ3(h) (Homo sapiens, UniProt Q9Y6M4); IGF-1R(h) (Homo sapiens, UniProt P08069); MAPK1(h) (Homo sapiens, UniProt P27361); PAK3(h) (Homo sapiens, UniProt O75914); JNK1α1(h) (Homo sapiens, UniProt P45983).

Common to all, as to assay: Kinase Profiling Assay
Holding throughout (assay type): biochemical
What all share (conditions): 100 μM

In a further assay the target is T1, SGK3(h) (Homo sapiens, UniProt Q96BR1).
T1 sequence (Q96BR1 1-496): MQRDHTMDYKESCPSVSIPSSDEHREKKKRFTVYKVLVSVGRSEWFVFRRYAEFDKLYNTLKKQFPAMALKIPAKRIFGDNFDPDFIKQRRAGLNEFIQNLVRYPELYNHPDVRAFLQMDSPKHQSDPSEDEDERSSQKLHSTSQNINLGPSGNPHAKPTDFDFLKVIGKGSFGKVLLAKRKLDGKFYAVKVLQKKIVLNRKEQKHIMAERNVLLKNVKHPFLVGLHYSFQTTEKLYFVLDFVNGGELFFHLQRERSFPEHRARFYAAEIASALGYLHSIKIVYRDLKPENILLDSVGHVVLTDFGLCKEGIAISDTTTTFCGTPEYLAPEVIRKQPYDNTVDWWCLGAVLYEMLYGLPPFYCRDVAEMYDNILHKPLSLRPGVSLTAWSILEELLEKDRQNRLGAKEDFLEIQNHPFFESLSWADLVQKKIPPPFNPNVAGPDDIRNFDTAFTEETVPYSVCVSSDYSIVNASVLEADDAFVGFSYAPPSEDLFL

Sequence of Aurora-B(h) (Q96GD4 whole entry): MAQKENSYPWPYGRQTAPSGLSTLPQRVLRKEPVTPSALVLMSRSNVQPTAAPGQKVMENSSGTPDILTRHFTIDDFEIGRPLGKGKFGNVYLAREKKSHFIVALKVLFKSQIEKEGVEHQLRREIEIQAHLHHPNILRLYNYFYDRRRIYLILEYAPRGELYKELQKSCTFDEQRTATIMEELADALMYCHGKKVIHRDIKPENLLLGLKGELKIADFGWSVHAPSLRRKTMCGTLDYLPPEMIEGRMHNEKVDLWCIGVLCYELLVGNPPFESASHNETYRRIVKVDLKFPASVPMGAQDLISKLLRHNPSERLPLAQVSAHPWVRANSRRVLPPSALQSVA
Sequence of FAK(h) (Q05397 whole entry): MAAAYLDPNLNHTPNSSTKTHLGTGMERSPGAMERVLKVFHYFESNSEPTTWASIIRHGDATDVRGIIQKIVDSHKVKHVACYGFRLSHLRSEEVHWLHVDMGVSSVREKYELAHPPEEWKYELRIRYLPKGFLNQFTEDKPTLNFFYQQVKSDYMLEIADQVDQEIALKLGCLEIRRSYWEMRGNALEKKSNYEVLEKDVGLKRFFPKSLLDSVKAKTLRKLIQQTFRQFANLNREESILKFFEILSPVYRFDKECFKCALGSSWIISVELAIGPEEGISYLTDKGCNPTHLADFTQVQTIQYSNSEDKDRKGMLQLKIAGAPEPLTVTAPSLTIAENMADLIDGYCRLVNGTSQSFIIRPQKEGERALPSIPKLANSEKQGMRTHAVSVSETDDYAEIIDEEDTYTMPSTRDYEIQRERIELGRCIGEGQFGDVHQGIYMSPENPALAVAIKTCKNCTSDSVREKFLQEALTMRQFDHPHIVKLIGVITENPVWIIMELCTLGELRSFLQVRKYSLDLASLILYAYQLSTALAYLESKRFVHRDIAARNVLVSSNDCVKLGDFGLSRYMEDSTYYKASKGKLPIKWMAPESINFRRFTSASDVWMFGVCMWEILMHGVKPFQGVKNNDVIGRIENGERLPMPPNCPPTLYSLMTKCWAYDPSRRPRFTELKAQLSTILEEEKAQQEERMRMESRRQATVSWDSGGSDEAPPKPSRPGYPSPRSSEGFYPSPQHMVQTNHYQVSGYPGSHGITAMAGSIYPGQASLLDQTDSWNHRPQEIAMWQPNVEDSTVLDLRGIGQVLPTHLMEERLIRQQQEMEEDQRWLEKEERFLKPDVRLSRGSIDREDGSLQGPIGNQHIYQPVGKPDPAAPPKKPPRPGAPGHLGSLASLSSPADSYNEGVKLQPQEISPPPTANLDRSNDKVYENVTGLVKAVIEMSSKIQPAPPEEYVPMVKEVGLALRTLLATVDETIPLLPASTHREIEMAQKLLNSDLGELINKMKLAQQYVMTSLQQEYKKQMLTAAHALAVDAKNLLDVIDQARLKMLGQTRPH
Sequence of PDGFRβ(h) (P09619 33-1106): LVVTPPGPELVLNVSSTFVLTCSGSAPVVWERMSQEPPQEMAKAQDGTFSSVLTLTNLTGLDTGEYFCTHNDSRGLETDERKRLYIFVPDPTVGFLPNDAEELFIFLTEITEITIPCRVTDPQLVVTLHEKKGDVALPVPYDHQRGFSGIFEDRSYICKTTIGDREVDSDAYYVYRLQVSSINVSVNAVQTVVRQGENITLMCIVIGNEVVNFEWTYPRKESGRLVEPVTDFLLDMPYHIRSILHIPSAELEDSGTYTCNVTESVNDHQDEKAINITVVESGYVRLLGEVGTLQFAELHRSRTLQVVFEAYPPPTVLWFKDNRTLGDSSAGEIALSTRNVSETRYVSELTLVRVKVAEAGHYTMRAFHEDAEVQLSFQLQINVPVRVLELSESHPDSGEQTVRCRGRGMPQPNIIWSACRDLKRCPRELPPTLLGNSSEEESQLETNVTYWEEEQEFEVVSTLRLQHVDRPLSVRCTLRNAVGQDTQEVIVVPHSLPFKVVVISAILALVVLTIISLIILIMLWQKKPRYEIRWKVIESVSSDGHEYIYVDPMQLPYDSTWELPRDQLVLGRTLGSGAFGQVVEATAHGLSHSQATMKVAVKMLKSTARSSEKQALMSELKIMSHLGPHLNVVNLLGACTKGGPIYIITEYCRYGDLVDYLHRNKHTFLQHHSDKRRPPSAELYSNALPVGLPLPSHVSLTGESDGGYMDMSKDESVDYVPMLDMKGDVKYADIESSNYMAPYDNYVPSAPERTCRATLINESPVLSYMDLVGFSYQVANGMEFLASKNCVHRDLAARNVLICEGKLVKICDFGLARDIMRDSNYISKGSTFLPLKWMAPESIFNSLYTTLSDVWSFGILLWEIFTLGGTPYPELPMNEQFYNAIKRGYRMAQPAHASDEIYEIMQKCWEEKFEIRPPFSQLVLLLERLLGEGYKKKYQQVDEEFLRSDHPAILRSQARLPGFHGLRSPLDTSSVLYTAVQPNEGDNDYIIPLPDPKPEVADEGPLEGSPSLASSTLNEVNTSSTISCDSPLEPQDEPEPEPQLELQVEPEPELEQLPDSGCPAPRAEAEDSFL
Sequence of Fes(h) (P07332 whole entry): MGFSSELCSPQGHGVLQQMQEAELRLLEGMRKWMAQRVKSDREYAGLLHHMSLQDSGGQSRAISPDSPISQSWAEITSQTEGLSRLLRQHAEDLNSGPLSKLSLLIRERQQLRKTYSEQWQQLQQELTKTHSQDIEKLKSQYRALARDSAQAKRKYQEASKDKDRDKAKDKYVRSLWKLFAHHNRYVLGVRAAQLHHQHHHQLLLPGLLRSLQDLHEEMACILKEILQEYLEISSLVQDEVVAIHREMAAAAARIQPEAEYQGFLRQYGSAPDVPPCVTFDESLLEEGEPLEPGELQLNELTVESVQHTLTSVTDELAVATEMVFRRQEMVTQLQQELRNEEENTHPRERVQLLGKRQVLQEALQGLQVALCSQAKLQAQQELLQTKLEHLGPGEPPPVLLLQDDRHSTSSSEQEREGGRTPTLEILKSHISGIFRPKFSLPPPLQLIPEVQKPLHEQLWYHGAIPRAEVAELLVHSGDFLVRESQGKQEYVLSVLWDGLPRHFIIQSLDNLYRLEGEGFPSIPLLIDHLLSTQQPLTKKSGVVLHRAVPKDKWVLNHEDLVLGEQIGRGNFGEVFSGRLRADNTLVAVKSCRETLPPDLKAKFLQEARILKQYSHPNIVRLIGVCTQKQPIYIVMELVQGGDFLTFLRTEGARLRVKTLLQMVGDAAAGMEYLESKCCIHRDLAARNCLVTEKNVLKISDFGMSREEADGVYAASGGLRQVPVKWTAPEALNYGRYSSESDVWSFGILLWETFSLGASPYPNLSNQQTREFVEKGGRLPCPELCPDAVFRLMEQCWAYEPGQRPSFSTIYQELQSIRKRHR
Sequence of Pim-1(h) (P11309 whole entry): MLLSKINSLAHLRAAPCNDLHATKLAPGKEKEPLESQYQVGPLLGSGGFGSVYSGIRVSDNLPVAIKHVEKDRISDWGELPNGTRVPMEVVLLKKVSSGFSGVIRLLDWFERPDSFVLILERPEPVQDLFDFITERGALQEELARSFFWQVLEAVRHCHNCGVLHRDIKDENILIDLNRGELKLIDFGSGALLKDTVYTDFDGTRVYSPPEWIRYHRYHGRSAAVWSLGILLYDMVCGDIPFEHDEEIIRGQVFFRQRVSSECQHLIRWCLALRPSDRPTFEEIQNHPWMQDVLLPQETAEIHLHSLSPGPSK
Sequence of Rsk2(h) (P51812 whole entry): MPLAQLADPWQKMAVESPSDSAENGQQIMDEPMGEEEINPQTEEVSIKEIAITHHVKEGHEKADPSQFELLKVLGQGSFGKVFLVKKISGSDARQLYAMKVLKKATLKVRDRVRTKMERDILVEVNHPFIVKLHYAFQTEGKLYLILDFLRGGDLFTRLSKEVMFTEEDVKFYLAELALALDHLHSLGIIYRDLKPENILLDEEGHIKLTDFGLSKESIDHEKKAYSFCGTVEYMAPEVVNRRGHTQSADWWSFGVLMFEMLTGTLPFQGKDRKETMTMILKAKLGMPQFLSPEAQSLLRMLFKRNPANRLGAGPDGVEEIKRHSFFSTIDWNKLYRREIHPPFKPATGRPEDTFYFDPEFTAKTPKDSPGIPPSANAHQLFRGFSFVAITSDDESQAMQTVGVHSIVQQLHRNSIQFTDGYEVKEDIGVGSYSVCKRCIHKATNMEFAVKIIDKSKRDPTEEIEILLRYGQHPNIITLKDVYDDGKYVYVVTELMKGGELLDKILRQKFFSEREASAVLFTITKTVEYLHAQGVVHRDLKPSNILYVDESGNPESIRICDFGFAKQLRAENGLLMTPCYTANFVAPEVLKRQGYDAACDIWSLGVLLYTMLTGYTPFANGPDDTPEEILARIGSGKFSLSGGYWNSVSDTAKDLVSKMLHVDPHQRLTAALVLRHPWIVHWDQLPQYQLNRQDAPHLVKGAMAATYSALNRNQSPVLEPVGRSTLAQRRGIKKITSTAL
Sequence of CK1γ3(h) (Q9Y6M4 whole entry): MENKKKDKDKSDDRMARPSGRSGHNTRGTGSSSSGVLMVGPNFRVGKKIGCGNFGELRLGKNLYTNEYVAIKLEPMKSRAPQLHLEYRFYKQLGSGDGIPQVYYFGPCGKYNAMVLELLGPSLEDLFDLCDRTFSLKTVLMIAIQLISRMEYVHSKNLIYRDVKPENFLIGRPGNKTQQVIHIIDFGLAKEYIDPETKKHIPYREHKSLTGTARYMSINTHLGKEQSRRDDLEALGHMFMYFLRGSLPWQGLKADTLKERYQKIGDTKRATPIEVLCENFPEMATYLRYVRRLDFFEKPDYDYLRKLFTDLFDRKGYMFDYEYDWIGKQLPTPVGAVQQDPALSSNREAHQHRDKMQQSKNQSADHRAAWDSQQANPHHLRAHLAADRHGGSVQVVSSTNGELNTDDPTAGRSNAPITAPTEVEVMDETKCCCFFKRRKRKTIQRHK

On to HRRIKAWLKKIKALARQLGVAA [MMI-0500], for which the “% activity” value is on record as 51% with Abl (H396P) (h); −3% with SGK3(h); 40% with PDGFRβ(h); 61% with Abl (M351T)(h); 5% in the assay with MRCKα(h); 359% with Lck(h). The “% activity” value with cKit(D816H)(h) is recorded as 194%; in the assay with Snk(h), 122%; with Fes(h), 23%; with Pim-1(h), 0%; with PKA(h), 118%; with Rsk2(h), 14%. In addition, the “% activity” value is recorded as 97% with PAR-1Bα(h); 5% with Aurora-B(h); 70% with EGFR(T790M)(h); 94% with FAK(h); 3% in the assay with FGFR4(h); 85% in the assay with HIPK3(h).

Take YARAAARQARAKALNRQLGVA [MMI-0200]: the “% activity” value in the assay with SGK3(h) came out at 58%; in the assay with PDGFRβ(h), 137%; in the assay with Tie2(R849W)(h), 89%; with CK1γ3(h), 96%; in the assay with Fes(h), 74%; with Pim-1(h) it was 18%. Moreover, the “% activity” value amounted to 110% in the assay with PKA(h); 101% with Rsk2(h); 49% in the assay with IGF-1R(h); 110% with PAR-1Bα(h); 166% with Aurora-B(h); 97% with MAPK1(h). For the same sequence, the “% activity” value stood at 110% in the assay with FAK(h), 50% with PAK3(h) and 75% with FGFR4(h).

For the sequence KAFAKLAARLYRKALARQLGVAA [MMI-0400], the “% activity” value is 8% with SGK3(h); 53% in the assay with PDGFRβ(h); 108% with Tie2(R849W)(h); 97% with MRCKα(h); 143% with cKit(D816H)(h); 131% with Snk(h). Also, the “% activity” value in the assay with Fes(h) is on record as 16%; with JNK1α1(h) it was 98%; in the assay with Pim-1(h) it was 7%; with Rsk2(h), 38%; with IGF-1R(h), 90%; in the assay with Aurora-B(h), 150%. Besides, the “% activity” value with MAPK1(h) stood at 100%; with FAK(h), 96%; with FGFR4(h), 19%.

For FAKLAARLYRKALARQLGVAA [MMI-0300], the “% activity” value with Abl (H396P) (h) is on record as 101%; with SGK3(h), 10%; in the assay with PDGFRβ(h) it was 81%; in the assay with Abl (M351T)(h), 90%; with Lck(h) it was −2%; with cKit(D816H)(h), 126%. The “% activity” value in the assay with CK1γ3(h) was determined as 125%; in the assay with Fes(h), 20%; in the assay with JNK1α1(h) it was 97%; with Pim-1(h), 8%; with Rsk2(h), 51%; with Aurora-B(h), 128%. Also, the “% activity” value with EGFR(T790M)(h) is recorded as 100%; with PAK3(h), 140%; in the assay with FGFR4(h) it was 28%; with HIPK3(h) it was 93%.
